The values below come from patent US20230357429A1 (JANUX THERAPEUTICS, published 2023).

Where no end group is shown, it is not given here.

As usually defined, the IC50 is the concentration that gives 50% inhibition.

In one assay the target is T1, TBD-21 (HC F108A).
T1 construct: Fab; also called HC F108A mutant
As to the kind of experiment: competition ELISA, peptide vs Fab binding to captured biotin-TROP2. For orientation: An ELISA detects its analyte on a solid surface through an enzyme-linked reagent.
In turn, PDFCYMYGWPICDS (cysteine pairing not given here; also: biotinylated, site not given here) [Peptide-32] had an IC50 of 13200 nM.

As for VDFCYQYGWPICSR (cysteine pairing not given here; also: biotinylated, site not given here) [Peptide-36], the IC50 was determined as 19900 nM.

IDFCAVYKWPVCQV (cysteine pairing not given here; also: biotinylated, site not given here) [Peptide-62] returned an IC50 of 3010 nM. This IC50 is about 6.6-fold lower than that of the molecule before.

Molecule IDFCAMYHWPICDT (cysteine pairing not given here; also: biotinylated, site not given here) [Peptide-42] showed a half-inhibitory concentration (IC50) of 940 nM.

In turn, VDFCYLYNWPVCSK (cysteine pairing not given here; also: biotinylated, site not given here) [Peptide-37] displayed an IC50 of 15500 nM.

In turn, VDFCALYHWPICYQ (cysteine pairing not given here; also: biotinylated, site not given here) [Peptide-43] yielded a half-inhibitory concentration (IC50) of 690 nM.

With PDFCYMYNWPVCVT (cysteine pairing not given here; also: biotinylated, site not given here) [Peptide-33], the IC50 came to 15700 nM.

In the case of EDFCYWYQWPICSD (cysteine pairing not given here; also: biotinylated, site not given here) [Peptide-35], the IC50 was determined as 19200 nM.

The molecule VDFCSIYHWPVCYV (cysteine pairing not given here; also: biotinylated, site not given here) [Peptide-38] showed an IC50 of 3540 nM.

The target of a further assay is T2, TBD-6 (LC I93A).
T2 construct: Fab; also called LC I93A mutant
Described as above.
PDFCYMYGWPICDS (cysteine pairing not given here; also: biotinylated, site not given here) [Peptide-32] registered a half-maximal inhibitory concentration (IC50) of 3290 nM.

For the molecule VDFCYQYGWPICSR (cysteine pairing not given here; also: biotinylated, site not given here) [Peptide-36], the IC50 came out at 3800 nM. This IC50 and that of the molecule before are within 1.5-fold of each other.

As for IDFCAVYKWPVCQV (cysteine pairing not given here; also: biotinylated, site not given here) [Peptide-62], the IC50 worked out at 550 nM.

On to IDFCAMYHWPICDT (cysteine pairing not given here; also: biotinylated, site not given here) [Peptide-42], for which the IC50 was 220 nM.

Regarding VDFCYLYNWPVCSK (cysteine pairing not given here; also: biotinylated, site not given here) [Peptide-37], the IC50 stood at 2600 nM. This IC50 lies about 12-fold higher than the previous one.

VDFCALYHWPICYQ (cysteine pairing not given here; also: biotinylated, site not given here) [Peptide-43] showed an IC50 of 440 nM.

For the molecule PDFCYMYNWPVCVT (cysteine pairing not given here; also: biotinylated, site not given here) [Peptide-33], the IC50 turned out to be 2160 nM.

EDFCYWYQWPICSD (cysteine pairing not given here; also: biotinylated, site not given here) [Peptide-35]: the IC50 was found to be 3200 nM. This IC50 and that of the molecule before are within 1.5-fold of each other.

The molecule VDFCSIYHWPVCYV (cysteine pairing not given here; also: biotinylated, site not given here) [Peptide-38] registered a half-inhibitory concentration (IC50) of 520 nM. This IC50 lies about 6.2-fold lower than the previous one.

For a further assay, the target named is T3, TBD-22 (HC D109A).
T3 construct: Fab; also called HC D109A mutant
The description is as above.
Consider PDFCYMYGWPICDS (cysteine pairing not given here; also: biotinylated, site not given here) [Peptide-32], for which the IC50 worked out at 330 nM.

As to VDFCYQYGWPICSR (cysteine pairing not given here; also: biotinylated, site not given here) [Peptide-36], the IC50 turned out to be 1720 nM.

Regarding IDFCAVYKWPVCQV (cysteine pairing not given here; also: biotinylated, site not given here) [Peptide-62], the IC50 was found to be 80 nM. This IC50 lies about 22-fold lower than the previous one.

Turning to IDFCAMYHWPICDT (cysteine pairing not given here; also: biotinylated, site not given here) [Peptide-42], the IC50 was 60 nM. This IC50 and that of the molecule before are within 1.5-fold of each other.

As to VDFCYLYNWPVCSK (cysteine pairing not given here; also: biotinylated, site not given here) [Peptide-37], the IC50 came out at 370 nM. This IC50 is about 6.2-fold higher than that of the molecule before.

On to VDFCALYHWPICYQ (cysteine pairing not given here; also: biotinylated, site not given here) [Peptide-43], for which the IC50 was determined as 50 nM.

The molecule PDFCYMYNWPVCVT (cysteine pairing not given here; also: biotinylated, site not given here) [Peptide-33] displayed an IC50 of 330 nM. Against the preceding molecule, the IC50 is about 6.6-fold higher.

The molecule EDFCYWYQWPICSD (cysteine pairing not given here; also: biotinylated, site not given here) [Peptide-35] showed an IC50 of 870 nM.

In the case of VDFCSIYHWPVCYV (cysteine pairing not given here; also: biotinylated, site not given here) [Peptide-38], the IC50 amounted to 170 nM.

Another assay has as its target T4, TBD-17 (HC S104A).
T4 construct: Fab; also called HC S104A mutant
The description is as above.
For PDFCYMYGWPICDS (cysteine pairing not given here; also: biotinylated, site not given here) [Peptide-32], the IC50 turned out to be 9440 nM.

With VDFCYQYGWPICSR (cysteine pairing not given here; also: biotinylated, site not given here) [Peptide-36], the IC50 is 14800 nM.

As to IDFCAVYKWPVCQV (cysteine pairing not given here; also: biotinylated, site not given here) [Peptide-62], the IC50 amounted to 1420 nM. Compared with the last molecule, the IC50 is about 10-fold lower.

Regarding IDFCAMYHWPICDT (cysteine pairing not given here; also: biotinylated, site not given here) [Peptide-42], the IC50 amounted to 590 nM. This IC50 lies about 2.4-fold lower than the previous one.

The molecule VDFCYLYNWPVCSK (cysteine pairing not given here; also: biotinylated, site not given here) [Peptide-37] displayed an IC50 of 4080 nM.

VDFCALYHWPICYQ (cysteine pairing not given here; also: biotinylated, site not given here) [Peptide-43] had an IC50 of 560 nM.

PDFCYMYNWPVCVT (cysteine pairing not given here; also: biotinylated, site not given here) [Peptide-33] returned an IC50 of 6010 nM. Against the preceding molecule, the IC50 is about 11-fold higher.

EDFCYWYQWPICSD (cysteine pairing not given here; also: biotinylated, site not given here) [Peptide-35]: the IC50 turned out to be 9400 nM.

Consider VDFCSIYHWPVCYV (cysteine pairing not given here; also: biotinylated, site not given here) [Peptide-38], for which the concentration for half-maximal inhibition (IC50) came to 2030 nM.

In another assay the target is T5, TBD-11 (HC R98A).
T5 construct: Fab; also called HC R98A mutant
The assay is described as above.
PDFCYMYGWPICDS (cysteine pairing not given here; also: biotinylated, site not given here) [Peptide-32] displayed an IC50 of 9930 nM. That is a single-digit micromolar value.

VDFCYQYGWPICSR (cysteine pairing not given here; also: biotinylated, site not given here) [Peptide-36] yielded an IC50 of 19800 nM.

IDFCAVYKWPVCQV (cysteine pairing not given here; also: biotinylated, site not given here) [Peptide-62]: the IC50 was 4870 nM.

In the case of IDFCAMYHWPICDT (cysteine pairing not given here; also: biotinylated, site not given here) [Peptide-42], the IC50 came to 1210 nM.

The molecule VDFCYLYNWPVCSK (cysteine pairing not given here; also: biotinylated, site not given here) [Peptide-37] came in with an IC50 of 16600 nM.

Regarding VDFCALYHWPICYQ (cysteine pairing not given here; also: biotinylated, site not given here) [Peptide-43], the IC50 was 770 nM.

In turn, PDFCYMYNWPVCVT (cysteine pairing not given here; also: biotinylated, site not given here) [Peptide-33] showed an IC50 of 18000 nM.

Consider EDFCYWYQWPICSD (cysteine pairing not given here; also: biotinylated, site not given here) [Peptide-35], for which the IC50 was 21900 nM.

In turn, VDFCSIYHWPVCYV (cysteine pairing not given here; also: biotinylated, site not given here) [Peptide-38] returned an IC50 of 4420 nM.

The target in another assay is T6, TBD-1 wt.
T6 construct: Fab; the heavy chain entry is VH-CH1; also called wild-type anti-TROP2 Fab (hRS7); TROP2 Fab
Described as above.
Consider PDFCYMYGWPICDS (cysteine pairing not given here; also: biotinylated, site not given here) [Peptide-32], for which the IC50 was found to be 4940 nM.

On to VDFCYQYGWPICSR (cysteine pairing not given here; also: biotinylated, site not given here) [Peptide-36], for which the concentration for half-maximal inhibition (IC50) was determined as 5110 nM.

IDFCAVYKWPVCQV (cysteine pairing not given here; also: biotinylated, site not given here) [Peptide-62] returned an IC50 of 1470 nM.

In the case of IDFCAMYHWPICDT (cysteine pairing not given here; also: biotinylated, site not given here) [Peptide-42], the IC50 worked out at 300 nM.

VDFCYLYNWPVCSK (cysteine pairing not given here; also: biotinylated, site not given here) [Peptide-37] came in with an IC50 of 6280 nM.

Take VDFCALYHWPICYQ (cysteine pairing not given here; also: biotinylated, site not given here) [Peptide-43]: the IC50 stood at 300 nM.

With PDFCYMYNWPVCVT (cysteine pairing not given here; also: biotinylated, site not given here) [Peptide-33], the IC50 was 5600 nM.

In the case of EDFCYWYQWPICSD (cysteine pairing not given here; also: biotinylated, site not given here) [Peptide-35], the IC50 came out at 4400 nM.

The molecule VDFCSIYHWPVCYV (cysteine pairing not given here; also: biotinylated, site not given here) [Peptide-38] came in with an IC50 of 1630 nM.
